The values below come from PMC4267844, “The Lifestyle Switch Protein Bd0108 of Bdellovibrio bacteriovorus Is an Intrinsically Disordered Protein” (PLoS ONE, 2014).

The target of this experiment is T1, Bd0109 (Bdellovibrio bacteriovorus HD100, UniProt Q6MRH5 1-550).
T1 sequence (looked up): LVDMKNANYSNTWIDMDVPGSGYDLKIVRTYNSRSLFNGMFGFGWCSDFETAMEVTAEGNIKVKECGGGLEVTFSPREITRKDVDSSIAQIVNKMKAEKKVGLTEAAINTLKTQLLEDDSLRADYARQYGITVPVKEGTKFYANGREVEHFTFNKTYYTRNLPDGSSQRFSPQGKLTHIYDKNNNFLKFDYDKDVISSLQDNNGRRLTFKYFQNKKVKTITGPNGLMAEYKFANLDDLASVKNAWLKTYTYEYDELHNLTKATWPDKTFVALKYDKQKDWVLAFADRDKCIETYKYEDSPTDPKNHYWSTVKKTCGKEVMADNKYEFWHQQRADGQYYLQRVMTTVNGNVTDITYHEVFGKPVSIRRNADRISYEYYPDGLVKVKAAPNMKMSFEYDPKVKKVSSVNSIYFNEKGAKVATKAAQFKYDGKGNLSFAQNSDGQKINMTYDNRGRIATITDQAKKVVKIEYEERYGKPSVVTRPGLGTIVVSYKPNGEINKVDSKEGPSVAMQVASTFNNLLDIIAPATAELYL
The experiment in a line: ITC; 1.2 mM Bd0108 titrated into 0.02 mM Bd0109; VP-ITC, 25°C; 20 mM Tris pH 7.0 100 mM NaCl 1 mM β-ME; one-site model. To be noted: both partners purified.

B1: Bd0108 (natural protein, Bdellovibrio bacteriovorus HD100)
chain: SHMADENANRPVNPGEDPNEAFRSTPFEATTSALGDCRECIAYRTGATTGKGSRRHDDTVSREIKGSSATPGGSEKAGTGRQ
modifications: disulfide between C56 and C59; 15N-labelled in the NMR titration
notes: tripeptide left on the mature N-terminus after thrombin cleavage of the His tag (cloning artefact); Bd0108 of Bdellovibrio bacteriovorus HD100, a 101 amino acid protein with an N-terminal Sec signal peptide; amino acids 23-101 cloned into pET28b; The assigned cloning artefacts (residues 21 and 22) in the titration point to this cytoplasmic construct and not to the PelB construct; also called …
On to B1, for which binding was put at a Kd of 45 µM, the dH is -2.08 kcal/mol and the “stoichiometry N” value came to 3.1.

As a reminder, the Kd is the equilibrium constant for the complex coming apart. A word on the stoichiometry N: it is the number of molecules, sites or subunits per partner or assembly.
